The text below walks through data of publication PMC4055580, “Simplagrin, a Platelet Aggregation Inhibitor from Simulium nigrimanum Salivary Glands Specifically Binds to the Von Willebrand Factor Receptor in Collagen and Inhibits Carotid Thrombus Formation In Vivo” (PLoS Neglected Tropical Diseases, 2014).

Test [1] concerns the target Simplagrin (Simulium platelet aggregation inhibitor), recombinant (Simulium nigrimanum) (UniProt D1FQ14). The test is described as follows: SPR; steady state: Simplagrin immobilised on CM5 (500 RU), soluble collagens as analyte, HBS-P; KD as the analyte concentration at 50% of saturation.
For test [2], the target named is Soluble human collagen type I (human) (UniProt P02452). The test can be described thus: SPR; Simplagrin-CT with collagen type I and III; who was immobilised is not told in what was shown.
Test [3] addresses Soluble human collagen type III (human) (UniProt P02461). The description is as above.
Test [4] has as its target Simplagrin (Simulium platelet aggregation inhibitor), recombinant (Simulium nigrimanum) (UniProt D1FQ14). The test can be described thus: SPR; kinetics: Simplagrin as ligand, RGQOGVMGF peptide as analyte (1-500 nM), 30 µL/min for 180 s, dissociation 600 s, global 1:1 model.
Test [5] concerns the target T1, Soluble human collagen type III (human, UniProt P02461 154-1221).
T1 construct: also called Collagen-III; collagen III; source: bought: R&D Systems
T1 sequence (looked up): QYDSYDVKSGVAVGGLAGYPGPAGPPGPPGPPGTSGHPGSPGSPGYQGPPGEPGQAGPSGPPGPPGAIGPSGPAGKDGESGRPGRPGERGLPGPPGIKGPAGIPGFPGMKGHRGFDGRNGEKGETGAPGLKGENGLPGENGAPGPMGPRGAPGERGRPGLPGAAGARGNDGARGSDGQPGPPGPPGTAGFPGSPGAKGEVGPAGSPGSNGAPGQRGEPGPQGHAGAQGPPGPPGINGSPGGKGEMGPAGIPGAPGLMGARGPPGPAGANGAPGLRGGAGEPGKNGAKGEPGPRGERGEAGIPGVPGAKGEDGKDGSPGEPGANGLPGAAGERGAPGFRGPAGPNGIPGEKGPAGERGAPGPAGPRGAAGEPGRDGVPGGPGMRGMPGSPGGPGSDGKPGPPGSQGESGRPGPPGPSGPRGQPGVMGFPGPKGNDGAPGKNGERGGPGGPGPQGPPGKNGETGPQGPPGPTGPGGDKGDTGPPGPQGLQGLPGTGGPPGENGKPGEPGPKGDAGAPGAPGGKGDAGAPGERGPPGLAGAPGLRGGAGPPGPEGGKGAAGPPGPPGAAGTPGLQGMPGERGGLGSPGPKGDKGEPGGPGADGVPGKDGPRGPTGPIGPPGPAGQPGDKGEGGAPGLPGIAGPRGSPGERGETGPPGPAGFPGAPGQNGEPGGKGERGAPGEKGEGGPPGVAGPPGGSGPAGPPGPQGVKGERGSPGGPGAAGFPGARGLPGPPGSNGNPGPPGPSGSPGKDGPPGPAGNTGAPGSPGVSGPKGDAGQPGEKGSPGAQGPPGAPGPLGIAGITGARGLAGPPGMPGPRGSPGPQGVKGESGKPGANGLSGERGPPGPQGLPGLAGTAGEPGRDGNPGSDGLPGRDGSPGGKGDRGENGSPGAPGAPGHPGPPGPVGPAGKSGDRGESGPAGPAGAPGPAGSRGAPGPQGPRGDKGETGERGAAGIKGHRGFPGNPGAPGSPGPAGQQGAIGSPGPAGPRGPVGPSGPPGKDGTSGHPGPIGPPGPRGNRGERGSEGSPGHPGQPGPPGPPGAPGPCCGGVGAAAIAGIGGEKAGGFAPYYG
The test can be described thus: ELISA; blocking: collagen type III (0.3 µg/mL) coated, Simplagrin 0.0015-1.5 µM for one hour at 37°C, washed, then 3 nM vWF; detected with anti-human vWF. Particulars: both partners purified.

In test [6] the target is Soluble human collagen type VI (human, UniProt P12109 20-1028; P12110 21-1019; P12111 26-3177). The test can be described thus: SPR; steady state: Simplagrin immobilised on CM5 (500 RU), soluble collagens as analyte, HBS-P; KD as the analyte concentration at 50% of saturation. Particulars: both partners purified.
Test [7] has as its target Soluble human collagen type IV (human, UniProt P02462 173-1669; P08572 184-1712). Described as above. Particulars: both partners purified.
The target of test [8] is T2, Soluble human collagen type I (human, UniProt P02452 162-1218; P08123 80-1119).
T2 construct: also called Collagen-I; Col-I; source: bought: R&D Systems
Described as above. The settings on record: both partners purified.

Test [9] has as its target T1, Soluble human collagen type III. The test is described as above. Particulars: both partners purified.
The target in test [10] is T2, Soluble human collagen type I. The test is described as follows: SPR; thermodynamics: Simplagrin (10-500 nM) over immobilised collagen type I or III at 15, 20, 25, 30, 35 and 40°C; 1:1 model, van't Hoff equation. Particulars: both partners purified.
Test [11] addresses T1, Soluble human collagen type III. Described as above. Particulars: both partners purified.
Test [12] addresses T2, Soluble human collagen type I. The test is described as follows: SPR; kinetics: collagen type I or III immobilised on CM5 by amine coupling, Simplagrin as analyte (0.015-1 µM), 180 s contact at 30 µL/min, 25°C, HBS-P, 1:1 Langmuir model. Particulars: both partners purified.
In test [13] the target is T1, Soluble human collagen type III. The description is as above. The settings on record: both partners purified.

T2 sequence (P02452 162-1218, chain 1 of 2): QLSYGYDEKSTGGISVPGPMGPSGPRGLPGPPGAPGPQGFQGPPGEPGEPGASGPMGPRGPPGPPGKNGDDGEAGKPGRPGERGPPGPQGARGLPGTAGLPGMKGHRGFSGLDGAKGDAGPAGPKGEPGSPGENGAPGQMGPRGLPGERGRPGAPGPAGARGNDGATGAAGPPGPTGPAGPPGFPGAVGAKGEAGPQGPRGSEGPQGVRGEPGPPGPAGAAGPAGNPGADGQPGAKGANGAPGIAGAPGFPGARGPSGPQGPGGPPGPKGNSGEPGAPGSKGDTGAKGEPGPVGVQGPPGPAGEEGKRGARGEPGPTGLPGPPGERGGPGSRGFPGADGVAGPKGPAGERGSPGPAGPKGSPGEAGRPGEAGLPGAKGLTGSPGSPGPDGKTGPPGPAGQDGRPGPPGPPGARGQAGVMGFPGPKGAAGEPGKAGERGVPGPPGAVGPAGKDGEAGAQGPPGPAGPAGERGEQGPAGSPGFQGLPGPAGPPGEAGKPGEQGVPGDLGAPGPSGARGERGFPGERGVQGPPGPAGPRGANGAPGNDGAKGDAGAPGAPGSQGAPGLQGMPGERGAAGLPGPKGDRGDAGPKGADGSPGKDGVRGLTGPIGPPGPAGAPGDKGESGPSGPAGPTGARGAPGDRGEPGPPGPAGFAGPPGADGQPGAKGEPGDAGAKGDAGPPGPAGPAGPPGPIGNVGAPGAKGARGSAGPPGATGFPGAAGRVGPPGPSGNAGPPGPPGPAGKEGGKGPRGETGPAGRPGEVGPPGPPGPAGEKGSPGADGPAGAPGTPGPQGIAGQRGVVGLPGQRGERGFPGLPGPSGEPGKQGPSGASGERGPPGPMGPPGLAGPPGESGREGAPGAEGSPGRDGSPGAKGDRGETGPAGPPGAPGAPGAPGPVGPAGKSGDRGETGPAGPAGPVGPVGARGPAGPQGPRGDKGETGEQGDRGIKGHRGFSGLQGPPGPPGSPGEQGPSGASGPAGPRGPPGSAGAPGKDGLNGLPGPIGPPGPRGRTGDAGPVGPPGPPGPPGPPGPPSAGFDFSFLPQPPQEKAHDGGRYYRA
T2 sequence (P08123 80-1119, chain 2 of 2): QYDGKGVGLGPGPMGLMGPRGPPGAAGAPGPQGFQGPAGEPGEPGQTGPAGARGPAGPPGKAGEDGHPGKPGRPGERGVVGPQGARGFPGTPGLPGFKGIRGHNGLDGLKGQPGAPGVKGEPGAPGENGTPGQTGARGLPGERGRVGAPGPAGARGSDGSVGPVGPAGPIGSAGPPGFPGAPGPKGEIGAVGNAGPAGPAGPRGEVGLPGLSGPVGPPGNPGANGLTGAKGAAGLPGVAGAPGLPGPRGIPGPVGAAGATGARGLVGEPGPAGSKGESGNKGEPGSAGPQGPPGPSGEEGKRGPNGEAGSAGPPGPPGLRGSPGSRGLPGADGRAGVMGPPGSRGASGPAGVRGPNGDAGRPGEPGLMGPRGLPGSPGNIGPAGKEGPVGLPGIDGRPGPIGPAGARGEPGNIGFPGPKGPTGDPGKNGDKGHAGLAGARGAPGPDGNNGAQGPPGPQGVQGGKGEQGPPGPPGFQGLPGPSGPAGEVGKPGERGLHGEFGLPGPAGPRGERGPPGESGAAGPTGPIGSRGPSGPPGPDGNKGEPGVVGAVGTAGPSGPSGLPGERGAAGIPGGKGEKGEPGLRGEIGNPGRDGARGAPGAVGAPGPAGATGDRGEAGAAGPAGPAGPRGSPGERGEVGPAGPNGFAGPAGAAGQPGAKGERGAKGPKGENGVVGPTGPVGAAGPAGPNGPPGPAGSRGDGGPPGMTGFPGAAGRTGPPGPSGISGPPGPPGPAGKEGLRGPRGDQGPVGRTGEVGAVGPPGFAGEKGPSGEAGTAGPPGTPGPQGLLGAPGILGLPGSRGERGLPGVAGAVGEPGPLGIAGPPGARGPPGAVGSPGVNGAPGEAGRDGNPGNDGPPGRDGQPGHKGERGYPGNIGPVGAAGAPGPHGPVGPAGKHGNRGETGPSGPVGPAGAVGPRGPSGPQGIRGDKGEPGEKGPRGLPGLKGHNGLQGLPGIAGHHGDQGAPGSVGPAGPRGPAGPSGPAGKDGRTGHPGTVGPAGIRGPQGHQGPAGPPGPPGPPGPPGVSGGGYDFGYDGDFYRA
Chain of Soluble human collagen type I (human) (P02452 162-1218, chain 1 of 2): as the sequence (P02452 162-1218, chain 1 of 2) above
Chain of Soluble human collagen type I (human) (P08123 80-1119, chain 2 of 2, further chain): as the sequence (P08123 80-1119, chain 2 of 2) above

Turning to “Soluble human collagen type V (from UniProt P20908 38-1605; P05997 27-1229) (natural protein)”, the Kd in [1] was 10.8 nM.

Take “Collagen type I from rat tail (from UniProt P02454 23-1207; P02466 86-1125) (natural protein)”: in [1], the Kd was 12.4 nM.

On to “Simplagrin carboxy-terminus domain (Simplagrin-CT) (domain or fragment)”, for which the Kd was found to be 285 nM in test [2] and 162 nM in test [3].

For “RGQOGVMGF collagen-derived peptide (vWF-recognition peptide)”, in [4], the Kd came to 11.1 nM, the koff amounted to 0.00048 s⁻¹ and the kon amounted to 727000 M⁻¹ s⁻¹.

B1: Simplagrin (Simulium platelet aggregation inhibitor), recombinant (natural protein, Simulium nigrimanum, UniProt D1FQ14 21-286, looked up)
chain: SPIPDEESEETEDAEQEEDAEEEEHAEEEAQEDGDQTQDTDQESDDGQEETANQGSDEQQEEDGSHGTDETDDEAAGSRTEDVESGGDEQNDGEENGSQENGEEVTGGEDDSHGAQDSEGGEEDAAAQEAGGKKSKGKGAKGGQGSNRAGSSSGGEESAAHTYQEVMRILNGIKINAKEPLKSRLVNGLQYLKVDTINRVENIQKFSRIEHCFGNLDHIVQLYAGDAVERNDYCKGTCIDMVSNEFRGQMEELTSRLYPCLQGGYY
notes: Simplagrin (cluster Sim-50), salivary gland protein of Simulium nigrimanum; precursor of 286 aa with a predicted signal peptide of 20 aa; the construct holds the mature protein and a 6X-His tag before the stop codon; Synthetic codon optimised gene in the VR2001 TOPO vector; also called Sim-50; recombinant Simplagrin; source: FreeStyle293 F (HEK293) cells, transfected, secreted; purified (Ni2+ …)
In test [5], B1 came in with an IC50 of around 100 nM. For the same molecule, the Kd in test [6] is 23.3 nM; in test [7] it was 27.6 nM; in test [8], 10.3 nM; in test [9], 9.72 nM; in test [12] it was 5.51 nM; in test [13] it was 2.1 nM. For the same molecule, the dH in test [10] was -4.54 kcal/mol; in test [11] it was -12.9 kcal/mol. In addition, in test [13], the koff was determined as 0.00031 s⁻¹. For the same molecule, the kon in test [13] was determined as 148000 M⁻¹ s⁻¹.
